Test results reported in the supplement of paper PMC11246515.
± gives the standard deviation of the averaged measurements.

Experiment: total protein half-life in vivo (active degradation + dilution); higher = more stable protein
[1] = E. coli NCM3722 delta-clpP delta-lon delta-hslV, growth: N-lim chemostat, doubling time 6 h
[2] = E. coli NCM3722 delta-clpP, growth: N-lim chemostat, doubling time 6 h
[3] = E. coli NCM3722 delta-smpB, growth: N-lim chemostat, doubling time 6 h
[4] = wild type E. coli NCM3722, growth: C-lim chemostat, doubling time 6 h
[5] = wild type E. coli NCM3722, growth: C-lim chemostat, doubling time 12 h
[6] = wild type E. coli NCM3722, growth: N-lim chemostat, doubling time 6 h
[7] = wild type E. coli NCM3722, growth: N-lim chemostat, doubling time 12 h
[8] = wild type E. coli NCM3722, growth: P-lim chemostat, doubling time 6 h
[9] = wild type E. coli NCM3722, growth: P-lim chemostat, doubling time 12 h
[10] = E. coli NCM3722 delta-hslV, growth: N-lim chemostat, doubling time 6 h
[11] = wild type E. coli NCM3722, growth: C-lim chemostat, doubling time 3 h

Sequence	total protein half-life in vivo [1] [h]	total protein half-life in vivo [2] [h]	total protein half-life in vivo [3] [h]	total protein half-life in vivo [4] [h]	total protein half-life in vivo [5] [h]	total protein half-life in vivo [6] [h]	total protein half-life in vivo [7] [h]	total protein half-life in vivo [8] [h]	total protein half-life in vivo [9] [h]	total protein half-life in vivo [10] [h]	total protein half-life in vivo (E. coli NCM3722 delta-lon, growth: N-lim chemostat, doubling time 6 h) [h]	total protein half-life in vivo [11] [h]
MSNITIYHNPACGTSRNTLEMIRNSGTEPTIIHYLETPPTRDELVKLIADMGISVRALLRKNVEPYEELGLAEDKFTDDRLIDFMLQHPILINRPIVVTPLGTRLCRPSEVVLEILPDAQKGAFSKEDGEKVVDEAGKRLK [P0AB96]	6.69 ± 0.8	5.24	3.72	6.14 ± 0.37	8.79 ± 1.4	3.41 ± 1.2	6.1	5.09	9.63 ± 0.02			
MSNIWSKEETLWSFALYGTAVGAGTLFLPIQLGSAGAVVLFITALVAWPLTYWPHKALCQFILSSKTSAGEGITGAVTHYYGKKIGNLITTLYFIAFFVVVLIYAVAITNSLTEQLAKHMVIDLRIRMLVSLGVVLILNLIFLMGRHATIRVMGFLVFPLIAYFLFLSIYLVGSWQPDLLTTQVEFNQNTLHQIWISIPVMVFAFSHTPIISTFAIDRREKYGEHAMDKCKKIMKVAYLIICISVLFFVFSCLLSIPPSYIEAAKEEGVTILSALSMLPNAPAWLSISGIIVAVVAMSKSFLGTYFGVIEGATEVVKTTLQQVGVKKSRAFNRALSIMLVSLITFIVCCINPNAISMIYAISGPLIAMILFIMPTLSTYLIPALKPWRSIGNLITLIVGILCVSVMFFS			5.13									
MSNKMTGLVKWFNADKGFGFISPVDGSKDVFVHFSAIQNDNYRTLFEGQKVTFSIESGAKGPAAANVIITD	0.427 ± 0.069	0.486 ± 0.036			0.407	0.537	0.434		1.16	0.454	0.617 ± 0.26	2.03
MSNLAAMLRLPANLKSTQWQILAGPILILLILSMMVLPLPAFILDLLFTFNIALSIMVLLVAMFTQRTLEFAAFPTILLFTTLLRLALNVASTRIILMEGHTGAAAAGKVVEAFGHFLVGGNFAIGIVVFVILVIINFMVITKGAGRIAEVGARFVLDGMPGKQMAIDADLNAGLIGEDEAKKRRSEVTQEADFYGSMDGASKFVRGDAIAGILIMVINIVGGLLVGVLQHGMSMGHAAESYTLLTIGDGLVAQIPALVISTAAGVIVTRVSTDQDVGEQMVNQLFSNPSVMLLSAAVLGLLGLVPGMPNLVFLLFTAGLLGLAWWIRGREQKAPAEPKPVKMAENNTVVEATWNDVQLEDSLGMEVGYRLIPMVDFQQDGELLGRIRSIRKKFAQEMGFLPPVVHIRDNMDLQPARYRILMKGVEIGSGDAYPGRWLAINPGTAAGTLPGEATVDPAFGLNAIWIESALKEQAQIQGYTVVEASTVVATHLNHLISQHAAELFGRQEAQQLLDRVAQEMPKLTEDLVPGVVTLTTLHKVLQNLLDEKVPIRDMRTILETLAEHAPIQSDPHELTAVVRVALGRAITQQWFPGKDEVHVIGLDTPLERLLLQALQGGGGLEPGLADRLLAQTQEALSRQEMLGAPPVLLVNHALRPLLSRFLRRSLPQLVVLSNLELSDNRHIRMTATIGGK				3.87	8.63				14.5			2.13 ± 0.33
MSNLSPDFVLPENFCANPQEAWTIPARFYTDQNAFEHEKENVFAKSWICVAHSSELANANDYVTREIIGESIVLVRGRDKVLRAFYNVCPHRGHQLLSGEGKAKNVITCPYHAWAFKLDGNLAHARNCENVANFDSDKAQLVPVRLEEYAGFVFINMDPNATSVEDQLPGLGAKVLEACPEVHDLKLAARFTTRTPANWKNIVDNYLECYHCGPAHPGFSDSVQVDRYWHTMHGNWTLQYGFAKPSEQSFKFEEGTDAAFHGFWLWPCTMLNVTPIKGMMTVIYEFPVDSETTLQNYDIYFTNEELTDEQKSLIEWYRDVFRPEDLRLVESVQKGLKSRGYRGQGRIMADSSGSGISEHGIAHFHNLLAQVFKD [P0ABR7]												0.182
MSNLTGTDKSVILLMTIGEDRAAEVFKHLSQREVQTLSAAMANVTQISNKQLTDVLAEFEQEAEQFAALNINANDYLRSVLVKALGEERAASLLEDILETRDTASGIETLNFMEPQSAADLIRDEHPQIIATILVHLKRAQAADILALFDERLRHDVMLRIATFGGVQPAALAELTEVLNGLLDGQNLKRSKMGGVRTAAEIINLMKTQQEEAVITAVREFDGELAQKIIDEMFLFENLVDVDDRSIQRLLQEVDSESLLIALKGAEQPLREKFLRNMSQRAADILRDDLANRGPVRLSQVENEQKAILLIVRRLAETGEMVIGSGEDTYV [P0ABZ1]	4.83	5.19		3.78 ± 0.1	5.85 ± 0.23							2.31 ± 0.33
MSNLTYLQGYPEQLLSQVRTLINEQRLGDVLAKRYPGTHDYATDKALWQYTQDLKNQFLRNAPPINKVMYDNKIHVLKNALGLHTAVSRVQGGKLKAKVEIRVATVFRNAPEPFLRMIVVHELAHLKEKEHNKAFYQLCCHMEPQYHQLEFDTRLWLTQLSLGQNKI	5.45 ± 0.29	1.98 ± 0.15	1.71	1.64 ± 0.58	5.13	1.78	1.54 ± 0.21	1.84 ± 0.49	2.74 ± 0.62	1.16		3.09
